Data on 32 sequences can be found in the supplement of paper PMC10201428.

± gives the standard deviation of the averaged measurements.

The subject of this series is VchCAST RNA-guided transposition machinery (E. coli BL21(DE3) host, lacZ target). Put plainly: relative integration efficiency (T-LR orientation) vs wild-type transposon end (log2 (normalized fold change)); transposon end mutated: right end (5 bp flank + 75 bp right end); higher = more efficient transposition. The essentials:
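Relative integration efficiency is a fold change of output over input barcode abundance, normalised to reference barcodes and log-transformed. Input plasmids and genomic integration junctions were PCR-amplified and Illumina-sequenced from E. coli BL21(DE3) co-transformed with a T7-driven effector plasmid and pUC57 donor pools of 1549 left-end or 1849 right-end transposon variants. Plating was done with 0.1 mM IPTG at 37°C for 18 h, with two biological output replicates and four reference barcodes.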
On to “ACATTTGTTGATACAACCATAAAGTGATATTTACACCCATAAATTGATATTGCTCACACCCATAAATTGATATTGCCTCTGATCATAGTCAGACCAACATTGCTACGACCCGTATTCGCACCGACAC”, for which the “relative integration efficiency (log2)” value was 0.438 ± 0.27.
The same measure for “ACATTTGTTGATACAACCATAAAATCTATATTACACCCATAAATTGATAATTATCACACCCATAAATTGATATTGCCTCTGATCATAGTCAGACCAACATTGCTACGACCCGTATTCGCACCGACAC”: -1.85 ± 0.057; for “ACATTTGTTGATACAACCATAAGTTGATATTTTCACCCATAAATTGATAATTATCACACCCATAAATTGATATTGCCTCTGATCATAGTCAGACCAACATTGCTACGACCCGTATTCGCACCGACAC”: -0.177 ± 0.84.
The same measure for “ACATTTGTTCATACAACCATAAAATGATAATTCACCCATAAATTGATAATTATCACACCCCAATTTAACTATAACGCTCTGATCATAGTCAGACCAACATTGCTACGACCCGTATTCGCACCGACAC”: -0.502 ± 0.27.
As for “ACATTTGTTGATACACCCATAAATTGATAATTACAACCATATATTGATATCTCTCACAACCATAAAGTGATATTTACTCTGATCATAGTCAGACCAACATTGCTACGACCCGTATTCGCACCGACAC”, the “relative integration efficiency (log2)” value was found to be 0.11 ± 0.14.
For the sequence “ACATTTGTTCATACAACCATAAAATGATAATTACACCCATAAATTGATAATTATCACCCCCAATTTAACTATAACGCTCTGATCATAGTCAGACCAACATTGCTACGACCCGTATTCGCACCGACAC”, the “relative integration efficiency (log2)” value came out at 0.97 ± 0.12.
To “ACATTTGTTGATACAACCAAAAAATGATAATTACACCCATAAATTGATAATGATGACACCGAATTTAACTATAACGCTCTGATCATAGTCAGACCAACATTGCTACGACCCGTATTCGCACCGACAC” belongs 2.11 ± 0.27; to “ACATTTGTGGATACAACCCTAAAATGATAATTACACCCATAAATGGATAATTATCACACCCAATTTAACTATAACGCTCTGATCATAGTCAGACCAACATTGCTACGACCCGTATTCGCACCGACAC”, -0.593 ± 0.47.
“ACATTTGTGGATACAACCCTAAAATGATAATTACACCCATAAATGGATCATTATCACACCCAATTTAACTATAACGCTCTGATCATAGTCAGACCAACATTGCTACGACCCGTATTCGCACCGACAC”: the “relative integration efficiency (log2)” value was -1.6 ± 0.071.
The same measure for “AACGGTGTTGATACAACCATAAAATGATAATTACACCCATAAATTGATAATTATCACACCCATAAATTGATATTGCCTCTGATCATAGTCAGACCAACATTGCTACGACCCGTATTCGCACCGACAC”: 0.221 ± 0.4; for “ACATTTGTTGATACAACCATAAAAGTCGCCGGCACAAACGCCCGGTCGCCGGCGACACAAACGCCCGGTCGCGGTAAGAGGATCATAGTCAGACCAACATTGCTACGACCCGTATTCGCACCGACAC”: -2.61 ± 0.042; for “ACATTTGTTGATACAACCATAAAATGATAATTACACCCATAAATTGATAATTATCACACCCATAAATTGATATTGCAGCTGATCATAGTCAGACCAACATTGCTACGACCCGTATTCGCACCGACAC”: 0.0166 ± 0.64.
The same measure for “ACATTTGTTGATACAACCATAAAATGATAATTAATAATTATTTATAATCAGCAACTTAACCACAAACACCCATAAATTGATAATTATCAACAAACGCCCGGTCGCGGTACTCTGATCATAGTCAGAC”: -0.33 ± 0.047; for “ACATTTGTTGATACAACCATAAAATGATAATGACACCCATAAATTGATAATGATCACACCCATAAATTGATATTTCCTCTGATCATAGTCAGACCAACATTGCTACGACCCGTATTCGCACCGACAC”: 0.195 ± 0.093.
The same measure for “ACATTTGTTGATACAACCAAAAAATGATAATTACACCCATAAATTGATAATTGTGACACCGAATTTAACTATAACGCTCTGATCATAGTCAGACCAACATTGCTACGACCCGTATTCGCACCGACAC”: 2.44 ± 0.069; for “ACATTTGTTGATACAACCATAAAATCATAATTCACCCCTAAATTGATAATTATCACACCCACATTTAACTATAACGCTCTGATCATAGTCAGACCAACATTGCTACGACCCGTATTCGCACCGACAC”: -1.89 ± 0.27.
On to “ACATTTGTTGATACAACCATAAAATGATAATTACACCCATAAATTGATAATTAAAACACCCATAAATTGATATTGCCTCTGATCATAGTCAGACCAACATTGCTACGACCCGTATTCGCACCGACAC”, for which the “relative integration efficiency (log2)” value turned out to be 0.089 ± 0.23.
For “ACATTTGTTGATACAACCATAAGTTGATATTTTCACCCATAAATTGATATTGCTCAGTGGGTATTTAACTATAACGCTCTGATCATAGTCAGACCAACATTGCTACGACCCGTATTCGCACCGACAC”, the “relative integration efficiency (log2)” value amounted to 2.31 ± 0.065.
The same measure for “ACATTTGTTGATACAACCATATTTAGATAATTACACCCATATTAAGATAATTATCACACCCATATTAAGATATTGCCTCTGATCATAGTCAGACCAACATTGCTACGACCCGTATTCGCACCGACAC”: -1.1 ± 0.36; for “ACATTTGTTGATACAACCATAAAGTGATATTTACAACCATAAAGTGATATTTATCACAACCATAAAATGATAATTACTCTGATCATAGTCAGACCAACATTGCTACGACCCGTATTCGCACCGACAC”: 0.11 ± 0.34; for “ACATTTGTTGATACAACCATAAAATCATAATTACCCCCATAAATTGATAATTATCACACCCCATTTAACTATAACGCTCTGATCATAGTCAGACCAACATTGCTACGACCCGTATTCGCACCGACAC”: 0.532 ± 0.1.
The same measure for “ACATTTGTTGATACAACCATAAAAGGATCATTACCCCCATCAATTGATAATTATCCCACCCAATTTAACTATAACGCTCTGATCATAGTCAGACCAACATTGCTACGACCCGTATTCGCACCGACAC”: -0.858 ± 0.08; for “ACATTTGTAAAAAAAACCATACGTTGATTTTACGAAACCATACGCTGAAATAATCACAACCATAACTTGAAATTGCCTCTGATCATAGTCAGACCAACATTGCTACGACCCGTATTCGCACCGACAC”: under -10.
The same measure for “ACATTTGTTGATACAACCATAAAATGATAATTACACCCATAAATTGATAATTATACCACCCATAAATTGATATTGCCTCTGATCATAGTCAGACCAACATTGCTACGACCCGTATTCGCACCGACAC”: 0.802 ± 0.067; for “ACATTTGTTGATACAACCATAAAATGATAATTACACCCATAAATTGATAATTATCACCACCATAAATTGATATTGCCTCTGATCATAGTCAGACCAACATTGCTACGACCCGTATTCGCACCGACAC”: 1.14 ± 0.095; for “ACATTTGTTGATACAACCATAAAATGATAATTACACCCATAAATTGATAATTATCACACCCATAAATTGATATTGCCTCTGATCATAGCAACCATAAAATGATAATTATCAGACCAAGCACCGACAC”: -0.337 ± 0.55.
As for “ACATTTGTTGATACAACCATAAAATGATAATCACCCATAAATTGATAATTATCACACCCATAAATTGATATTGCCTCTGATCATAGTCAGACCAACATTGCTACGACCCGTATTCGCACCGACACTG”, the “relative integration efficiency (log2)” value is -1.91 ± 0.79.
The same measure for “ACATTTGTTGATACAACCATAAAATGAGCCGTACACCCATAAATTGATAATTATCACACCCATAAATTGATATTGCCTCTGATCATAGTCAGACCAACATTGCTACGACCCGTATTCGCACCGACAC”: -0.26 ± 0.5; for “ACATTTGTTGATACAACCATAAAAGGATAATTACCCCCATAAATTGATAATTATCCCACCCAATTTAACTATAACGCTCTGATCATAGTCAGACCAACATTGCTACGACCCGTATTCGCACCGACAC”: 2.19 ± 0.4; for “ACATTTGTTGATACAACCATAAAATGATAATTAATAATTATTTATAATCAGCAACTTAACCACAAACACCCATAAATTGATAATTATCACACCCATAAATTGATATTGCCTCTGATCATAGTCAGAC”: -4.03 ± 0.67.
“ACATTTGTTGATACAACCATAAAATGGTAATTACACCCATACATTGATAATTATCACACCCAATTTAACTATAACGCTCTGATCATAGTCAGACCAACATTGCTACGACCCGTATTCGCACCGACAC”: the “relative integration efficiency (log2)” value was found to be 0.71 ± 0.05.
To “ACATTTGTTGATACAACCATAAAATGATAATTACACCCATAAATTGATAATTATCACACCCATAAATTGATATTGCCTCTGATAACTTCGTATAGGATACTTTATACGAAGTTATTCGCACCGACAC” belongs 1.19 ± 0.28.
